The target in one data set is T1, MBP-SPO11;TOP6BL (Mus musculus;Mus musculus, UniProt Q9WTK8;J3QMY9 1-396;1-579, |).
T1 sequence 1: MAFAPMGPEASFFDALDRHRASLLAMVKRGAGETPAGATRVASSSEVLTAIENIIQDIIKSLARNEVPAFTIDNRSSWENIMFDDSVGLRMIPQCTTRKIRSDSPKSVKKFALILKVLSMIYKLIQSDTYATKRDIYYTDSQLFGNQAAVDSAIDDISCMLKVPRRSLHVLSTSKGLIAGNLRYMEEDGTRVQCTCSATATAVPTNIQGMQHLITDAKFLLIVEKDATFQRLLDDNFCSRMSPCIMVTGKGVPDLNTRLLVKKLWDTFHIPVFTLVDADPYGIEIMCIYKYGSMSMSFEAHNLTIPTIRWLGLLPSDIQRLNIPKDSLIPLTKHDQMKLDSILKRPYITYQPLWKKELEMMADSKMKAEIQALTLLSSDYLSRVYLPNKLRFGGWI
T1 sequence 2: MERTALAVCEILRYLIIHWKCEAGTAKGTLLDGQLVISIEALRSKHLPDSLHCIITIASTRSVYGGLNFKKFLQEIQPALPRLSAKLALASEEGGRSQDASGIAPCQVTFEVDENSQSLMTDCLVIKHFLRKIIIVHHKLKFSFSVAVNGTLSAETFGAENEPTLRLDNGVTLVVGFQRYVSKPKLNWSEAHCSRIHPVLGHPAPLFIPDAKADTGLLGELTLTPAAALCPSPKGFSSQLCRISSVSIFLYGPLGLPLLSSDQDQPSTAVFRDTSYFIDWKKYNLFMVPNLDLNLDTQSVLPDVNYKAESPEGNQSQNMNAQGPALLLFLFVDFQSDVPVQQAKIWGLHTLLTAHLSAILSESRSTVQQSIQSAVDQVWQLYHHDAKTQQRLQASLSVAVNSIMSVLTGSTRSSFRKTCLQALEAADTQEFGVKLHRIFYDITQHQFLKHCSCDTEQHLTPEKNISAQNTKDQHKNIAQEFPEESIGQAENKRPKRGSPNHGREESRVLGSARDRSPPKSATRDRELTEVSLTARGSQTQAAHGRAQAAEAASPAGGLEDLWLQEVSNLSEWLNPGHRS
The experiment in a line: EMSA; 5 mM EDTA, 0.1 nM DNA; EMSA: 25 mM Tris-HCl pH 7.5, 7.5% glycerol, 50 mM NaCl, 2 mM DTT, 5 mM EDTA, 1 mg/ml BSA, 37 C, 30 min; 0.1 nM labelled hairpin or 100 ng plasmid in 20 µl. The conditions noted are these: protein: recombinant;recombinant; tags: MBP;His-Flag; copies: 1;1; label: 5' 32P; hairpin, 2-nt 5' overhang. For orientation: A gel shift assay detects complexes by their altered migration in electrophoresis.

Data set [1] concerns the target T2, MBP-tagged Mus musculus SPO11 (Mus musculus, UniProt Q9WTK8 1-396).
T2 construct: SPO11, Mus musculus; expected molecular mass of MBP–SPO11 87.4 kDa; active-site tyrosines Y137 and Y138; also called MBP–SPO11; mouse SPO11; source: baculovirus-infected Sf9 insect cells, purified (amylose, Superdex 200, cation exchange); for the complex co-expressed with TOP6BL and purified (Ni-NTA, amylose, Superdex 200); not shown: MBP, N-terminal, kept
T2 sequence (looked up): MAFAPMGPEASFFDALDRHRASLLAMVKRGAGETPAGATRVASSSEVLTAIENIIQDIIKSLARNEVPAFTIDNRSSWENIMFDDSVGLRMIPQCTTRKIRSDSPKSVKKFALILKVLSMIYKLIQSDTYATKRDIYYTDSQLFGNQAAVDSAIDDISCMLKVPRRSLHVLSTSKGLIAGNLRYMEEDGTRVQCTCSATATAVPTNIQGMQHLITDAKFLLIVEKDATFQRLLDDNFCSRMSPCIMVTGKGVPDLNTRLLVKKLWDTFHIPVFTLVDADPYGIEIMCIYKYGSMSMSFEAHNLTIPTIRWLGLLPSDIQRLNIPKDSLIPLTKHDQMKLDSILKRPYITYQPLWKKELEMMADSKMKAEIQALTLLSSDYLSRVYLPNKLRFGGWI
As to the kind of experiment: SEC-MALS; co-expressed and co-purified MBP–SPO11 and His–Flag TOP6BL complex (Ni-NTA, amylose, Superdex 200); Superdex 200 increase 10/300 GL; 25 mM HEPES-NaOH pH 7.5, 500 mM NaCl, 10% glycerol, 5 mM EDTA, 2 mM DTT. As to conditions: both partners purified. Background: SEC sorts molecules by how far they enter the pores of the column.

Two molecules from paper PMC11922746, “SPO11 dimers are sufficient to catalyse DNA double-strand breaks in vitro” (Nature, 2024) can be followed below.

In the case of TAGCAATGTAATCGTCTATGACGTTAACGTCATAGACGATTACATTGC (structured_DNA) [cb957 hairpin, 25 bp, 2-nt 5' overhang], the binding result in the data set with MBP-SPO11;TOP6BL is given as “binds”.

B1: His–Flag-tagged Mus musculus TOP6BL (natural protein, UniProt J3QMY9 1-579, looked up)
chain: MERTALAVCEILRYLIIHWKCEAGTAKGTLLDGQLVISIEALRSKHLPDSLHCIITIASTRSVYGGLNFKKFLQEIQPALPRLSAKLALASEEGGRSQDASGIAPCQVTFEVDENSQSLMTDCLVIKHFLRKIIIVHHKLKFSFSVAVNGTLSAETFGAENEPTLRLDNGVTLVVGFQRYVSKPKLNWSEAHCSRIHPVLGHPAPLFIPDAKADTGLLGELTLTPAAALCPSPKGFSSQLCRISSVSIFLYGPLGLPLLSSDQDQPSTAVFRDTSYFIDWKKYNLFMVPNLDLNLDTQSVLPDVNYKAESPEGNQSQNMNAQGPALLLFLFVDFQSDVPVQQAKIWGLHTLLTAHLSAILSESRSTVQQSIQSAVDQVWQLYHHDAKTQQRLQASLSVAVNSIMSVLTGSTRSSFRKTCLQALEAADTQEFGVKLHRIFYDITQHQFLKHCSCDTEQHLTPEKNISAQNTKDQHKNIAQEFPEESIGQAENKRPKRGSPNHGREESRVLGSARDRSPPKSATRDRELTEVSLTARGSQTQAAHGRAQAAEAASPAGGLEDLWLQEVSNLSEWLNPGHRS
notes: TOP6BL (topo VIB-like subunit), Mus musculus; also called His–mTOP6BL–Flag; mTOP6BL; not shown: His, N-terminal, kept; Flag, C-terminal, kept
With B1, the “stoichiometry N” value in data set [1] was found to be 1.

Usually stoichiometry N stands for the number of molecules, sites or subunits per partner or assembly.
